The results in this text go back to paper PMC8971729.

Experiment [1] concerns the target human CD46 protein (His tag) (human) (UniProt P15529). The experiment is described as follows: SPR; BIAcore 3000; DSG2-Fc, CAR-Fc and CD46-His (approximately 500 RU) coupled to a CM5 chip; knob protein injected (178 uM, 5x 1:3 dilutions; single-cycle kinetics from 200 uM); 30 uL/min, PBS, 25 °C; equilibrium KD assuming 1:1 Langmuir binding. Background: Surface plasmon resonance follows binding to a sensor surface in real time, without labels.

The target in experiment [2] is human CXADR Fc chimera protein (CAR) (human) (UniProt P78310). Described as above.
In experiment [3] the target is Human desmoglein-2 Fc chimera protein (DSG2) (human) (UniProt Q14126). The description is as above.
For experiment [4], the target named is CAR on CHO-CAR cells (UniProt P78310). As to the kind of experiment: flow cytometry on cells; CHO-CAR cells with serial dilutions of knob protein (0.0001-100 ug/10^5 cells) for 1 h on ice, washed, then stained for CAR with anti-CAR (RmcB) and a labelled secondary antibody; IC50 by non-linear regression; apparent.
CAR on CHO-CAR cells, sequence (P78310 20-365): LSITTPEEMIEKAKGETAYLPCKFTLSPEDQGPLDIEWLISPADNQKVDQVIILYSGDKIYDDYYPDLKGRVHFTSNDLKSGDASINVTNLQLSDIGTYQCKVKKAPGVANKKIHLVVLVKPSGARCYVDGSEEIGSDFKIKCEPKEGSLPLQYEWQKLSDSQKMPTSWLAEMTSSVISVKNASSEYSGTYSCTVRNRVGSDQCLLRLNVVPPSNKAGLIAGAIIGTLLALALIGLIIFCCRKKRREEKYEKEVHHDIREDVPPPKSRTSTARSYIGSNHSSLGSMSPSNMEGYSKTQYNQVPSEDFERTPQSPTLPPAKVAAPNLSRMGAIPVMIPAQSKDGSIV

human CD46 protein (His tag) (human), sequence (P15529 35-343): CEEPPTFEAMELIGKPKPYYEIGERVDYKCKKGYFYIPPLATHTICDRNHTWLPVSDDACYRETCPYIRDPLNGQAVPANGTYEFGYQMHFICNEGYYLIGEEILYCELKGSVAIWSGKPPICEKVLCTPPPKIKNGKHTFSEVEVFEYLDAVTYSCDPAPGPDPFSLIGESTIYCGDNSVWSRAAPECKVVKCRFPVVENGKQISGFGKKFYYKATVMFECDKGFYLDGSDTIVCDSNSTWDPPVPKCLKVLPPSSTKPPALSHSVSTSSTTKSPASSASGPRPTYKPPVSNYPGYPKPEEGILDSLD
Human desmoglein-2 Fc chimera protein (DSG2) (human), sequence (Q14126 50-609, change not shown): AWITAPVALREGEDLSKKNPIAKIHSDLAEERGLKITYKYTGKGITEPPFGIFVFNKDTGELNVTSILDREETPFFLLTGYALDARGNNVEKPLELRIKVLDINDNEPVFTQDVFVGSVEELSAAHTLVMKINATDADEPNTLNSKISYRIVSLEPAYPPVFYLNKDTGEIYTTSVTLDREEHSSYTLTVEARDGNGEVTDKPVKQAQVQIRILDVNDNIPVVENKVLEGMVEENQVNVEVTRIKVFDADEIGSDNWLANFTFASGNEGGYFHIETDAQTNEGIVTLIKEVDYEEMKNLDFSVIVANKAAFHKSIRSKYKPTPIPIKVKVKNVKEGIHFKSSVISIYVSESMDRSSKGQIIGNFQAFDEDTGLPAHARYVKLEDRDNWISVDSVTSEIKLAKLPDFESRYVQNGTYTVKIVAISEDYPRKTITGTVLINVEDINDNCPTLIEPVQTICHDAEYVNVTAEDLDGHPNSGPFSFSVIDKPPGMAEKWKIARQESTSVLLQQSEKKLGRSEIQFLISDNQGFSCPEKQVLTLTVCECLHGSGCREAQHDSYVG
human CXADR Fc chimera protein (CAR) (human), sequence (P78310 20-237, change not shown): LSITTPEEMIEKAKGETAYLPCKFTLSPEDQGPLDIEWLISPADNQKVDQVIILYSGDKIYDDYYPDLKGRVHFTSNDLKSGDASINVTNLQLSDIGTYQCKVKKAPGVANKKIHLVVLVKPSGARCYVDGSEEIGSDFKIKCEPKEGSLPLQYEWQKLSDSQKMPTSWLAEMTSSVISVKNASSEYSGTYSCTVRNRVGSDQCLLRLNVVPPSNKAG

In the case of “HAdV-D10 fiber knob protein (domain or fragment)”, the Kd (as a rule, the constant that tells how readily two partners part at equilibrium) in experiment [1] stood at 20 µM; in experiment [2], 0.44 µM; in experiment [3] it was 125 µM. In experiment [4], the fold lower apparent affinity than HAdV-C5K (by IC50) came out at 16.5 fold.
